A word on the pKd: it is the negative decadic logarithm of the Kd, by convention in mol/L. As usually defined, the pIC50 is −log10 of the IC50, conventionally taken in molar units. Low values mean a high IC50, high ones a low IC50.

The target of assay [1] is HLA-B*48:01. The assay is described as follows: IEDB peptide-MHC binding, purified MHC/direct/fluorescence; filed as Kd, often an IC50 or EC50 that approximates it; ≥ and ≤ were set here for values at or beyond the usual limits of such assays.
Assay [2] concerns the target HLA-A*02:01. The assay is described as follows: IEDB peptide-MHC binding, purified MHC/competitive/radioactivity; filed as Kd, often an IC50 or EC50 that approximates it; ≥ and ≤ were set here for values at or beyond the usual limits of such assays.
In assay [3] the target is HLA-A*68:02. The assay is described as above.
Assay [4] has as its target HLA-A*24:02. The assay is described as follows: IEDB peptide-MHC binding, purified MHC/competitive/fluorescence; ≥ and ≤ were set here for values at or beyond the usual limits of such assays.
The target in assay [5] is HLA-B*15:01. The assay is described as follows: IEDB peptide-MHC binding, purified MHC/competitive/radioactivity; filed as Kd, often an IC50 or EC50 that approximates it; ≥ and ≤ were set here for values at or beyond the usual limits of such assays.
The target in assay [6] is HLA-A*26:01. The assay is described as follows: IEDB peptide-MHC binding, purified MHC/direct/fluorescence; filed as Kd, often an IC50 or EC50 that approximates it; ≥ and ≤ were set here for values at or beyond the usual limits of such assays.
In assay [7] the target is HLA-B*53:01. The assay is described as follows: IEDB peptide-MHC binding, purified MHC/competitive/radioactivity; filed as Kd, often an IC50 or EC50 that approximates it; ≥ and ≤ were set here for values at or beyond the usual limits of such assays.
Assay [8] deals with HLA-B*51:01. The assay is described as above. The conditions noted are these: source organism: Dengue virus 2 Jamaica/1409/1983.
The target in assay [9] is HLA-B*35:01. The assay is described as above.
For assay [10], the target named is HLA-B*07:02. Described as above.
Assay [11] has as its target HLA-A*02:01. The assay is described as follows: IEDB peptide-MHC binding, purified MHC/competitive/fluorescence; ≥ and ≤ were set here for values at or beyond the usual limits of such assays.
The target of assay [12] is HLA-A*02:03. The assay is described as follows: IEDB peptide-MHC binding, purified MHC/competitive/radioactivity; filed as Kd, often an IC50 or EC50 that approximates it; ≥ and ≤ were set here for values at or beyond the usual limits of such assays.
Assay [13] deals with HLA-A*02:06. The assay is described as above.
Assay [14] has as its target HLA-A*02:02. The assay is described as above.
In assay [15] the target is HLA-A*26:01. The assay is described as follows: IEDB peptide-MHC binding, purified MHC/competitive/fluorescence; filed as Kd, often an IC50 or EC50 that approximates it; ≥ and ≤ were set here for values at or beyond the usual limits of such assays.
For assay [16], the target named is HLA-A*01:01. The assay is described as follows: IEDB peptide-MHC binding, purified MHC/competitive/radioactivity; filed as Kd, often an IC50 or EC50 that approximates it; ≥ and ≤ were set here for values at or beyond the usual limits of such assays. Particulars: source organism: Dengue virus 3 Martinique/1243/1999.
In assay [17] the target is HLA-A*30:02. The assay is described as above. The conditions noted are these: source organism: Dengue virus 3 Martinique/1243/1999.
Assay [18] addresses HLA-A*23:01. Described as above.
Assay [19] deals with HLA-A*32:01. Described as above.
For assay [20], the target named is HLA-B*15:01. The assay is described as follows: IEDB peptide-MHC binding, purified MHC/competitive/fluorescence; filed as Kd, often an IC50 or EC50 that approximates it; ≥ and ≤ were set here for values at or beyond the usual limits of such assays.
For assay [21], the target named is HLA-A*02:01. Described as above. Particulars: source organism: Salmonella enterica subsp. enterica serovar Typhi.
Assay [22] concerns the target HLA-A*30:01. The assay is described as follows: IEDB peptide-MHC binding, purified MHC/competitive/radioactivity; filed as Kd, often an IC50 or EC50 that approximates it; ≥ and ≤ were set here for values at or beyond the usual limits of such assays.
The target of assay [23] is HLA-B*08:01. Described as above. The conditions noted are these: source organism: Dengue virus 1 Nauru/West Pac/1974.
Assay [24] addresses HLA-A*24:02. The assay is described as above. Particulars: source organism: Dengue virus 1 Brazil/97-11/1997.
The target in assay [25] is HLA-B*18:01. The assay is described as follows: IEDB peptide-MHC binding, purified MHC/direct/fluorescence; filed as Kd, often an IC50 or EC50 that approximates it; ≥ and ≤ were set here for values at or beyond the usual limits of such assays. Particulars: source organism: Salmonella enterica.
The target of assay [26] is HLA-B*40:01. The description is as above. Particulars: source organism: Salmonella enterica.
Setting [27] is: source organism: Zaire ebolavirus.
The mark [28] stands for this setting: source organism: Vaccinia virus WR.
The mark [29] stands for this setting: source organism: Dengue virus 2 Jamaica/1409/1983.
[30] abbreviates: source organism: Sudan ebolavirus.
Where [31] appears, read: source organism: Trypanosoma cruzi.
The mark [32] stands for this setting: source organism: Bacillus anthracis str. A0488.
Setting [33] is: source organism: Dengue virus 3 Martinique/1243/1999.
[34] abbreviates: source organism: Hepacivirus hominis.
[35] abbreviates: source organism: Dengue virus 1 Brazil/97-11/1997.
Setting [36] is: source organism: Dengue virus 4 Philippines/H241/1956.
Setting [37] is: source organism: Dengue virus 1 Nauru/West Pac/1974.
Setting [38] is: source organism: Lassa virus Josiah.

pIC50, pKd: −log10 of the molar value. Some results are limits rather than exact numbers.

With AEFNEDGLL, in [1] (source organism: Listeria monocytogenes serotype 4b str. H7858), the negative-log Kd (pKd) is at most 4.70.
As to ALALEEKRRL, the values for the pKd in [2] (source organism: Homo sapiens) and in assay [3] (source organism: Homo sapiens) were 4.91 and at most 4.20, respectively.
In turn, AYQGDYKLF gave a pIC50 in [4] (setting [27]) of 6.27.
EGVVAFLIL had a negative-log IC50 (pIC50) in [4] (setting [27]) of at most 4.10.
Take EIAKYGHSF: the pKd in assay [5] (setting [28]) was 7.24.
Sequence ESFDLAGLF gave a pKd in assay [6] (source organism: Mammarenavirus juninense) of 8.89.
On to FAISYCRAF, for which the pKd in assay [5] (setting [28]) is 7.12.
As to FPQSNAPIM, the pKd in assay [7] (setting [29]) is 8.74; in assay [8], 6.20; in assay [9] (setting [29]), 4.87; in assay [10] (setting [29]), 7.92.
In the case of FSAWISHRP, the pIC50 was 6.29 in [4] (source organism: Variola virus) and 4.42 in [11] (source organism: Variola virus).
In the case of GAQHSTTLF, the pIC50 in [4] (setting [30]) was 4.38.
In the case of GLITCKAFG, the negative-log IC50 (pIC50) in assay [4] (setting [28]) was at most 3.77; in [11] (setting [28]), 4.22.
Consider GLLPSLLLLG, for which the negative-log Kd (pKd) in [2] (setting [31]) is 6.92; in [12] (setting [31]) it was 6.86; in assay [13] (setting [31]) it was 6.90; in [14] (setting [31]), 6.58; in [3] (setting [31]), 5.43.
Take GMNEVTKAL: in assay [1] (source organism: Giardia lamblia ATCC 50803), the negative-log Kd (pKd) was 6.44.
In turn, HIVYAVPLM showed a pKd in [15] (setting [32]) of 8.09.
Regarding ISKIPGGAMY, the pKd in [5] (setting [33]) was 6.87; in assay [16], at most 4.62; in assay [17] it was 8.03.
Turning to IYTSGKRSN, in assay [4] (setting [27]), the pIC50 is 5.20.
With KLFMALVAF, the results for the negative-log Kd (pKd) in assay [5] (setting [29]), in [18] (setting [29]) and in assay [19] (setting [29]) were 6.70, 5.32 and 7.42, respectively.
For KLSGLGFNAV, the pKd in assay [2] (setting [34]) was 7.71; in [12] (setting [34]), 8.55; in assay [13] (setting [34]) it was 7.61; in [14] (setting [34]), 8.27; in [3] (setting [34]) it was 5.21.
In the case of KQERGKSLLF, in assay [5] (setting [35]), the pKd is 6.93.
On to KQSSFLSSL, for which the pKd in assay [20] (source organism: Salmonella enterica subsp. enterica serovar Typhi) is 7.03; in assay [21] it was 7.42.
With KYYIKNIGN, the pIC50 in assay [4] (source organism: Vaccinia virus) was at most 3.99.
Turning to LAMTDTTPF, the pKd in [5] (setting [36]) is 8.41; in [7] (setting [36]), 7.03; in assay [9] (setting [36]), 8.78.
As to LKVFLPNPA, in assay [4] (source organism: Variola virus), the pIC50 was 4.69.
Turning to LLFILFYFA, the pKd in assay [5] (setting [28]) is 6.62.
Take LQIFSNSVG: the pKd in [5] (setting [28]) is 8.68.
Turning to LSRNSTHEM, the pKd in [22] (setting [33]) was 6.97; in assay [5] (setting [33]) it was 7.40.
In turn, LTVVPLMAF gave a pKd in assay [20] (source organism: Bacillus cereus G9241) of 6.83.
Take LTYFCFVAL: the pKd in [5] (setting [28]) is 7.55; in [19] (setting [28]), 6.21.
Regarding LVKRFSTGLF, the pKd in assay [5] (setting [36]) was 6.59.
As for LYLVDYGLV, the results for the pIC50 in assay [4] (setting [28]) and in [11] (setting [28]) were 6.67 and at most 4.05, respectively.
Take MLRVYNNTA: in assay [5] (setting [28]), the pKd was 6.73.
Regarding MMCYFLTATP, the negative logarithm of the Kd (pKd) in assay [2] (setting [28]) is 7.74.
With MMLKLLTDF, the pKd in [5] (setting [37]) is 7.94; in assay [18] (setting [37]), 6.45; in [19] (setting [37]), 7.25.
MSIVCIVAA: the pKd in assay [5] (setting [28]) is 5.51.
Consider NTARLMAGA, for which the negative-log Kd (pKd) in [6] (source organism: Mycobacterium tuberculosis) was at most 4.70.
The sequence QARFSGLLI showed a pIC50 in assay [4] (setting [27]) of 4.78.
Turning to QAVNNLVEL, the pKd in assay [2] (setting [38]) is 5.34.
Regarding RARNRVSTV, the values for the pKd in assay [22] (setting [37]), in assay [23] and in assay [10] (setting [37]) were 7.64, 8.05 and 8.58, respectively.
As to RLLGTFTWT, the pKd in assay [2] (setting [38]) was 7.47; in assay [12] (setting [38]), 6.98; in assay [13] (setting [38]) it was 6.86; in assay [14] (setting [38]) it was 6.49; in assay [3] (setting [38]), at most 5.30.
In assay [15] (source organism: Influenza A virus (A/Memphis/1/1978(H1N1))), SIIGILHLI had a negative-log Kd (pKd) of 4.89.
In the case of SLFIESSICL, the pKd in [2] (setting [28]) is 8.70; in assay [12] (setting [28]), 6.53; in assay [13] (setting [28]), 6.01; in [14] (setting [28]), 7.00.
With SMRKTDWLPM, the negative logarithm of the Kd (pKd) in assay [5] (setting [33]) is 6.87.
In the case of TTQALQLFL, the results for the negative logarithm of the IC50 (pIC50) in assay [4] (setting [30]) and in assay [11] (setting [30]) were 5.18 and 4.98, respectively.
In turn, VLNGAPYSY showed a pKd in assay [20] (setting [32]) of 7.27.
For VLTGGVTLFF, the pKd is 5.79 in assay [24] and 6.71 in [5] (setting [35]).
Take VMTKWCAPF: in assay [5] (setting [28]), the pKd was 8.73.
On to YPVWLTKHL, for which the values for the pKd in [25] and in [26] were 5.67 and 5.53, respectively.

For the origin of these results see the Immune Epitope Database (IEDB).
